The values below come from publication PMC9430589.

Common to all, as to experiment: EMSA
Conditions in all cases: EMSA: 20 mM Tris-HCl pH 8.0, 1 mM MgCl2, 20 mM KCl, 10 mM Na phosphate pH 8.0, 10% glycerol, 500 nM heparin, 1 nM RNA, 37 C 1 h (PNPase: TMK, 50 mM Tris-HCl pH …)

Data set [1] addresses T1, RhlB (DEAD box RNA helicase) (Deinococcus radiodurans R1) (UniProt Q9RXH8).
T1 sequence: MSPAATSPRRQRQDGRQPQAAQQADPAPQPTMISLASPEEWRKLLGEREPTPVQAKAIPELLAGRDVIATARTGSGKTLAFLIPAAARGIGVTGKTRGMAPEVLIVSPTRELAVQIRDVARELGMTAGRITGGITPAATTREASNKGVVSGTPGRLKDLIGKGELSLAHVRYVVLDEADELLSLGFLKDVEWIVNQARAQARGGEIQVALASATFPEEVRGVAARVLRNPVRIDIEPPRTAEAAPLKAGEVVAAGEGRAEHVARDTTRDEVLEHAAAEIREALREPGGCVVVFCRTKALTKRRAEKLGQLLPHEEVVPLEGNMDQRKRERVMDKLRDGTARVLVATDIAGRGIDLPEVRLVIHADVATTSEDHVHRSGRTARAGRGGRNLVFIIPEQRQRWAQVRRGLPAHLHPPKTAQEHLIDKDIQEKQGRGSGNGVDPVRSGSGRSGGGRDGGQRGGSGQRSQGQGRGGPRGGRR

The target in data set [2] is T2, RpsA (ribosomal protein S1) (Deinococcus radiodurans R1) (UniProt Q9RSY6).
T2 sequence: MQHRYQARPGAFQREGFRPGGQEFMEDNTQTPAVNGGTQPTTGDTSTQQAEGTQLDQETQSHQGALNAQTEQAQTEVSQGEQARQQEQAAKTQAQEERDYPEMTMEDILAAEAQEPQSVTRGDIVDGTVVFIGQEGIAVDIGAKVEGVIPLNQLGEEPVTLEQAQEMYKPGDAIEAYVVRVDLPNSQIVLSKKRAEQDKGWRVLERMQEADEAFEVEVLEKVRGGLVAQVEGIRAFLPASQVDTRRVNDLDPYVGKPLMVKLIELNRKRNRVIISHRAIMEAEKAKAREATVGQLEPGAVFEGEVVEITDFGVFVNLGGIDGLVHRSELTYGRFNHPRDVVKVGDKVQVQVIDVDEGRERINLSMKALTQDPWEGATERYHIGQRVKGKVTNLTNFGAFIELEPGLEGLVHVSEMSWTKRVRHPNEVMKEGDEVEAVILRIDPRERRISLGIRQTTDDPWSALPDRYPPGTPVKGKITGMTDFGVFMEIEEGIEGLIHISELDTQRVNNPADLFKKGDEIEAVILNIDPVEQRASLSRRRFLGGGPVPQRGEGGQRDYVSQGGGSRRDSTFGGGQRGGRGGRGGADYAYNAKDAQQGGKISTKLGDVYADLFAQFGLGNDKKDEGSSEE

For data set [3], the target named is T3, Rho transcription termination factor (Deinococcus radiodurans R1) (UniProt P52153).
T3 sequence: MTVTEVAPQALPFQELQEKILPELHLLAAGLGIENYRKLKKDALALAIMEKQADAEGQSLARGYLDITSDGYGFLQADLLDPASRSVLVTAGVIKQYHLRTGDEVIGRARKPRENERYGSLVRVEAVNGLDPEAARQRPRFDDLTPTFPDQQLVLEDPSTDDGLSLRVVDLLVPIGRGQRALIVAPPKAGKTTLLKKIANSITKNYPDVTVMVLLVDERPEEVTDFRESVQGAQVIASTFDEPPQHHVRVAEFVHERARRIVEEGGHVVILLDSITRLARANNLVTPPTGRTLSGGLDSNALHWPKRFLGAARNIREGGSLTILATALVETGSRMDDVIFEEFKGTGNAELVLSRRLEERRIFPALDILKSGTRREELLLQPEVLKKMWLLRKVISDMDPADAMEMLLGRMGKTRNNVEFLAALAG

With “NNNGNNNNNGNNNNNGNNNNNGNN [8-oxoG x1 24-mer (random N, degenerate)]”, the values for the Kd in data set [1] (8-oxoG at position 16), in data set [2] (8-oxoG at position 16) and in data set [3] (8-oxoG at position 16) were 383 nM, 1710 nM and 1880 nM, respectively.

“NNNGNNNNNGNNNNNGNNNNNGNN [8-oxoG x4 24-mer (random N, degenerate)]” yielded a Kd in data set [1] (8-oxoG at positions 4, 10, 16, 22) of 341 nM.

“NNNGNNNNNGNNNNNGNNNNNGNN [8-oxoG x3 24-mer (random N, degenerate)]” displayed a Kd in data set [1] (8-oxoG at positions 10, 16, 22) of 351 nM.

Regarding “NNNGNNNNNGNNNNNGNNNNNGNN [Ctrl 24-mer (random N, degenerate)]”, the Kd is 3010 nM in data set [1], 5440 nM in data set [2] and 3940 nM in data set [3].

For “NNNGNNNNNGNNNNNGNNNNNGNN [8-oxoG x2 24-mer (random N, degenerate)]”, in data set [1] (8-oxoG at positions 16, 22), the Kd came out at 355 nM.

For orientation: Kd means the constant that tells how readily two partners part at equilibrium. Lower therefore signals tighter binding.
